Test results from article doi:10.1101/2023.01.21.525003.

Assays:
Experiment in all cases: FRET or BRET
[1] = molecular target: Gluc-LHCGRv4 (Gaussia luciferase fused to the N-terminus of the luteinizing hormone/chorionic gonadotropin receptor) (human) (UniProt P22888)
[2] = molecular target: Gluc-LHCGR^Cys131Arg (human) (UniProt P22888)
[3] = molecular target: Gluc-LHCGR^Glu354Lys (human) (UniProt P22888)
[4] = molecular target: Gluc-LHCGR^Ile152Thr (human) (UniProt P22888)
Chain of Gluc-LHCGR^Ile152Thr (human) (P22888 27-699 I152T): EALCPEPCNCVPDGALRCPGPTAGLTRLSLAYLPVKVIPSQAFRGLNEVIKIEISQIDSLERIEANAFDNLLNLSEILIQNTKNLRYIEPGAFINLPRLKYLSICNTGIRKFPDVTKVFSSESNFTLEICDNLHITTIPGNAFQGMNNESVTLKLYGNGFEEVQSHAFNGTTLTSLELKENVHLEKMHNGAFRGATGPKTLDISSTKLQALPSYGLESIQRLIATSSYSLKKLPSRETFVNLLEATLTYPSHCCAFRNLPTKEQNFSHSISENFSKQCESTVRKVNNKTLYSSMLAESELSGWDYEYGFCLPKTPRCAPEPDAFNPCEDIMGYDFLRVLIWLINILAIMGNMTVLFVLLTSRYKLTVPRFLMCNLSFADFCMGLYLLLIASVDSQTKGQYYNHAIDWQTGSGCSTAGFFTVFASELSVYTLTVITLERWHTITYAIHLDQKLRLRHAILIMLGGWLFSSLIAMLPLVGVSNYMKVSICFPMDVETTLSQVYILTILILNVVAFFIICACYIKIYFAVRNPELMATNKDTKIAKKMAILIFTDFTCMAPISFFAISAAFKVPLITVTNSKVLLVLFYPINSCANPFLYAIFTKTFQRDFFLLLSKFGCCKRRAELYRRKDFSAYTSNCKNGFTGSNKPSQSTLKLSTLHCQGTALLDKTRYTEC

Chain of Gluc-LHCGR^Glu354Lys (human) (P22888 27-699 E354K): as the sequence (P22888 27-699 I152T) above, with T126I, E328K counted along it
Chain of Gluc-LHCGR^Cys131Arg (human) (P22888 27-699 C131R): as the sequence (P22888 27-699 I152T) above, with C105R, T126I counted along it
Chain of Gluc-LHCGRv4 (Gaussia luciferase fused to the N-terminus of the luteinizing hormone/chorionic gonadotropin receptor) (human) (P22888 27-699): as the sequence (P22888 27-699 I152T) above, with T126I counted along it

| Substance | acceptor:donor (BRET) ratio, fold lower than equimolar yhCG^WT-eGFP [1] [fold lower] | acceptor:donor (BRET) ratio, fold lower than Gluc-LHCGR^WT [2] [fold lower] | acceptor:donor (BRET) ratio, fold lower than Gluc-LHCGR^WT [3] [fold lower] | acceptor:donor (BRET) ratio, fold lower than Gluc-LHCGR^WT [4] [fold lower] |
| --- | --- | --- | --- | --- |
| yhCG^Glu80Ala-eGFP (yoked human chorionic gonadotropin with CGA Glu80Ala, fused to eGFP) (ligand) | 4.6 |  |  |  |
| yhCG^WT-eGFP (yoked human chorionic gonadotropin fused to eGFP) (ligand) |  | 5.5 | 2.6 | 5.1 |
